Results reported in FireProtDB (doi:10.1529/biophysj.106.099531).
Values joined by “and” are separate entries in the source; they are usually repeats but may differ in a detail not shown here. Equal entries are not always repeated.

Details: Pseudomonas aeruginosa (strain ATCC 15692 / DSM 22644 / CIP 104116 / JCM 14847 / LMG 12228 / 1C / PRS 101 / PAO1), pH 7.5, GdnHCl, Fluorescence, Tris 1 mM, NaCl 1.93 M, reversible: Yes, whole UniProt chain shown

B1: Azurin wild type, P00282 (protein)
chain: MLRKLAAVSLLSLLSAPLLAAECSVDIQGNDQMQFNTNAITVDKSCKQFTVNLSHPGNLPKNVMGHNWVLSTAADMQGVVTDGMASGLDKDYLKPDDSRVIAHTKLIGSGEKDSVTFDVSKLKEGEQYMFFCTFPGHSALMKGTLTLK
20 °C
  denaturant m value: 5.53 kcal/mol/M
  denaturant midpoint (higher = more stable): 1.74 M
  unfolding free energy: 9.63 kcal/mol
-8 °C
  denaturant m value: 3.63 kcal/mol/M and 6.66 kcal/mol/M
  denaturant midpoint (higher = more stable): 1.79 M and 1.58 M
  unfolding free energy: 6.89 kcal/mol and 10.5 kcal/mol
-10 °C
  denaturant m value: 3.77 kcal/mol/M
  denaturant midpoint (higher = more stable): 1.73 M
  unfolding free energy: 6.83 kcal/mol
-12 °C
  denaturant m value: 3.85 kcal/mol/M and 6.98 kcal/mol/M
  denaturant midpoint (higher = more stable): 1.7 M and 1.5 M
  unfolding free energy: 6.77 kcal/mol and 10.5 kcal/mol
